The target in assay [1] is human Glucagon receptor (GCGR) (human, UniProt P47871 26-477). The experiment in a line: cell-based or functional assay.
Assay [2] concerns the target human GLP-1 receptor (GLP1R) (human, UniProt P43220 24-463). As to the kind of experiment: cell-based or functional assay.

Numbered stars: 1 amine (or outer) side, 2 acyl side, 3 side chain; on linkers, the order of the positions; unused ones are H or OH. Square brackets hold non-standard residues; d marks the D form. Side chains are listed from the residue outwards. Ends that are not written are not given here. * marks the point of attachment. Phe(4-CH2NH2) = NCc1ccc(C[C@H](N)C(=O)O)cc1; C18 diacid = O=C(O)CCCCCCCCCCCCCCCCC(=O)*; γGlu = O=C(O)[C@H](CCC(=O)[*:2])N[*:1]; Met(O2) = CS(=O)(=O)CC[C@H](N)C(=O)O; αMeD = C[C@](N)(CC(=O)O)C(=O)O; AEEA = NCCOCCOCC(=O)O; Aib = CC(C)(N)C(=O)O Some results are limits rather than exact numbers.

human Glucagon receptor (GCGR), sequence (P47871 26-477): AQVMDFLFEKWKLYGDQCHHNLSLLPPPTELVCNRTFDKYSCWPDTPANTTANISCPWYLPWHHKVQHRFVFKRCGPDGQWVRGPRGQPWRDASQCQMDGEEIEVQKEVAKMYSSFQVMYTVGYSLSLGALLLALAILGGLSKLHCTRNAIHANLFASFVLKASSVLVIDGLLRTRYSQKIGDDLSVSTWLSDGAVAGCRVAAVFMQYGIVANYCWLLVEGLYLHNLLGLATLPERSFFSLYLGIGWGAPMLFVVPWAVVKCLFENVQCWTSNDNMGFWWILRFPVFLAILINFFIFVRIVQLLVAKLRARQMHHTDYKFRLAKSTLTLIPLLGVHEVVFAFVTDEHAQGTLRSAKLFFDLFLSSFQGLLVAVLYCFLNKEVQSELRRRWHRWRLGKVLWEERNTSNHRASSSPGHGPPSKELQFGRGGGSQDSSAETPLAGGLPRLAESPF

B1: TP700 (peptide)
peptide: H[Aib]QGTFTSDYSEYLDKRAAQDFVK([AEEA-AEEA-γGlu-C18 diacid])WL[Met(O2)]DT-NH2
modifications: N-terminus assumed
SMILES: CC(C)C[C@H](NC(=O)[C@H](Cc1ccc(O)cc1)NC(=O)[C@H](CCC(=O)O)NC(=O)[C@H](CO)NC(=O)[C@H](Cc1ccc(O)cc1)NC(=O)[C@H](CC(=O)O)NC(=O)[C@H](CO)NC(=O)[C@@H](NC(=O)[C@H](Cc1ccccc1)NC(=O)[C@@H](NC(=O)CNC(=O)[C@H](CCC(N)=O)NC(=O)C(C)(C)NC(=O)[C@@H](N)Cc1c[nH]cn1)[C@@H](C)O)[C@@H](C)O)C(=O)N[C@@H](CC(=O)O)C(=O)N[C@@H](CCCCN)C(=O)N[C@@H](CCCNC(=N)N)C(=O)N[C@@H](C)C(=O)N[C@@H](C)C(=O)N[C@@H](CCC(N)=O)C(=O)N[C@@H](CC(=O)O)C(=O)N[C@@H](Cc1ccccc1)C(=O)N[C@H](C(=O)N[C@@H](CCCCNC(=O)COCCOCCNC(=O)COCCOCCNC(=O)CC[C@H](NC(=O)CCCCCCCCCCCCCCCCC(=O)O)C(=O)O)C(=O)N[C@@H](Cc1c[nH]c2ccccc12)C(=O)N[C@@H](CC(C)C)C(=O)N[C@@H](CCS(C)(=O)=O)C(=O)N[C@@H](CC(=O)O)C(=O)N[C@H](C(N)=O)[C@@H](C)O)C(C)C
As to B1, the “GCGR EC50 human” value in assay [1] was above 4.9 nM. Further, in assay [2], the “GLP1R EC50 human” value turned out to be 0.35 nM.

B2: TP682 (peptide)
peptide: H[Aib]QGTFTSDYSKYLD[Aib]RAAQDFVQWLL[Phe(4-CH2NH2)]([AEEA-AEEA-γGlu-C18 diacid])TK-{γGlu-NH2}
As to B2, the “GCGR EC50 human” value in assay [1] came to 2.35 nM. Further, in assay [2], the “GLP1R EC50 human” value stood at 2.31 nM.

B3: TP681 (peptide)
peptide: H[Aib]QGTFTSDYSKYLDARAAQK([AEEA-AEEA-γGlu-C18 diacid])FVQWL[Met(O2)][αMeD]T-NH2
modifications: N-terminus assumed
SMILES: CC(C)C[C@H](NC(=O)[C@H](Cc1ccc(O)cc1)NC(=O)[C@H](CCCCN)NC(=O)[C@H](CO)NC(=O)[C@H](Cc1ccc(O)cc1)NC(=O)[C@H](CC(=O)O)NC(=O)[C@H](CO)NC(=O)[C@@H](NC(=O)[C@H](Cc1ccccc1)NC(=O)[C@@H](NC(=O)CNC(=O)[C@H](CCC(N)=O)NC(=O)C(C)(C)NC(=O)[C@@H](N)Cc1c[nH]cn1)[C@@H](C)O)[C@@H](C)O)C(=O)N[C@@H](CC(=O)O)C(=O)N[C@@H](C)C(=O)N[C@@H](CCCNC(=N)N)C(=O)N[C@@H](C)C(=O)N[C@@H](C)C(=O)N[C@@H](CCC(N)=O)C(=O)N[C@@H](CCCCNC(=O)COCCOCCNC(=O)COCCOCCNC(=O)CC[C@H](NC(=O)CCCCCCCCCCCCCCCCC(=O)O)C(=O)O)C(=O)N[C@@H](Cc1ccccc1)C(=O)N[C@H](C(=O)N[C@@H](CCC(N)=O)C(=O)N[C@@H](Cc1c[nH]c2ccccc12)C(=O)N[C@@H](CC(C)C)C(=O)N[C@@H](CCS(C)(=O)=O)C(=O)N[C@@](C)(CC(=O)O)C(=O)N[C@H](C(N)=O)[C@@H](C)O)C(C)C
Take B3: the “GCGR EC50 human” value in assay [1] came to 0.27 nM. The “GLP1R EC50 human” value in assay [2] amounted to 0.15 nM.

B4: TP585 (peptide)
peptide: H[Aib]QGTFTSDYSKYLDARAAQ[Phe(4-CH2NH2)]([AEEA-AEEA-γGlu-C20‑OH])FVQWLLDT-NH2
Turning to B4, in assay [1], the “GCGR EC50 human” value came to 1.13 nM. Also, the “GLP1R EC50 human” value in assay [2] is 0.566 nM.

B5: TP702 (peptide)
peptide: H[Aib]QGTFTSDYSKYLDARAAQEFVK([AEEA-AEEA-γGlu-C18 diacid])WL[Met(O2)]DT-NH2
modifications: N-terminus assumed
SMILES: CC(C)C[C@H](NC(=O)[C@H](Cc1ccc(O)cc1)NC(=O)[C@H](CCCCN)NC(=O)[C@H](CO)NC(=O)[C@H](Cc1ccc(O)cc1)NC(=O)[C@H](CC(=O)O)NC(=O)[C@H](CO)NC(=O)[C@@H](NC(=O)[C@H](Cc1ccccc1)NC(=O)[C@@H](NC(=O)CNC(=O)[C@H](CCC(N)=O)NC(=O)C(C)(C)NC(=O)[C@@H](N)Cc1c[nH]cn1)[C@@H](C)O)[C@@H](C)O)C(=O)N[C@@H](CC(=O)O)C(=O)N[C@@H](C)C(=O)N[C@@H](CCCNC(=N)N)C(=O)N[C@@H](C)C(=O)N[C@@H](C)C(=O)N[C@@H](CCC(N)=O)C(=O)N[C@@H](CCC(=O)O)C(=O)N[C@@H](Cc1ccccc1)C(=O)N[C@H](C(=O)N[C@@H](CCCCNC(=O)COCCOCCNC(=O)COCCOCCNC(=O)CC[C@H](NC(=O)CCCCCCCCCCCCCCCCC(=O)O)C(=O)O)C(=O)N[C@@H](Cc1c[nH]c2ccccc12)C(=O)N[C@@H](CC(C)C)C(=O)N[C@@H](CCS(C)(=O)=O)C(=O)N[C@@H](CC(=O)O)C(=O)N[C@H](C(N)=O)[C@@H](C)O)C(C)C
B5: the “GCGR EC50 human” value in assay [1] amounted to 0.35 nM. The “GLP1R EC50 human” value in assay [2] came to 0.27 nM.

B6: TP699 (peptide)
peptide: H[Aib]QGTFTSEYSKKLDARAAQDFVK([AEEA-AEEA-γGlu-C18 diacid])WL[Met(O2)]DT-NH2
modifications: N-terminus assumed
SMILES: CC(C)C[C@H](NC(=O)[C@H](CCCCN)NC(=O)[C@H](CCCCN)NC(=O)[C@H](CO)NC(=O)[C@H](Cc1ccc(O)cc1)NC(=O)[C@H](CCC(=O)O)NC(=O)[C@H](CO)NC(=O)[C@@H](NC(=O)[C@H](Cc1ccccc1)NC(=O)[C@@H](NC(=O)CNC(=O)[C@H](CCC(N)=O)NC(=O)C(C)(C)NC(=O)[C@@H](N)Cc1c[nH]cn1)[C@@H](C)O)[C@@H](C)O)C(=O)N[C@@H](CC(=O)O)C(=O)N[C@@H](C)C(=O)N[C@@H](CCCNC(=N)N)C(=O)N[C@@H](C)C(=O)N[C@@H](C)C(=O)N[C@@H](CCC(N)=O)C(=O)N[C@@H](CC(=O)O)C(=O)N[C@@H](Cc1ccccc1)C(=O)N[C@H](C(=O)N[C@@H](CCCCNC(=O)COCCOCCNC(=O)COCCOCCNC(=O)CC[C@H](NC(=O)CCCCCCCCCCCCCCCCC(=O)O)C(=O)O)C(=O)N[C@@H](Cc1c[nH]c2ccccc12)C(=O)N[C@@H](CC(C)C)C(=O)N[C@@H](CCS(C)(=O)=O)C(=O)N[C@@H](CC(=O)O)C(=O)N[C@H](C(N)=O)[C@@H](C)O)C(C)C
For B6, in assay [1], the “GCGR EC50 human” value is above 19.8 nM. Also, the “GLP1R EC50 human” value in assay [2] is above 19.8 nM.

B7: TP703 (peptide)
peptide: H[Aib]QGTFTSEYSKKLDARAAK([AEEA-AEEA-γGlu-C18 diacid])DFVQWL[Met(O2)]DT-NH2
modifications: N-terminus assumed
SMILES: CC(C)C[C@H](NC(=O)[C@H](CCCCN)NC(=O)[C@H](CCCCN)NC(=O)[C@H](CO)NC(=O)[C@H](Cc1ccc(O)cc1)NC(=O)[C@H](CCC(=O)O)NC(=O)[C@H](CO)NC(=O)[C@@H](NC(=O)[C@H](Cc1ccccc1)NC(=O)[C@@H](NC(=O)CNC(=O)[C@H](CCC(N)=O)NC(=O)C(C)(C)NC(=O)[C@@H](N)Cc1c[nH]cn1)[C@@H](C)O)[C@@H](C)O)C(=O)N[C@@H](CC(=O)O)C(=O)N[C@@H](C)C(=O)N[C@@H](CCCNC(=N)N)C(=O)N[C@@H](C)C(=O)N[C@@H](C)C(=O)N[C@@H](CCCCNC(=O)COCCOCCNC(=O)COCCOCCNC(=O)CC[C@H](NC(=O)CCCCCCCCCCCCCCCCC(=O)O)C(=O)O)C(=O)N[C@@H](CC(=O)O)C(=O)N[C@@H](Cc1ccccc1)C(=O)N[C@H](C(=O)N[C@@H](CCC(N)=O)C(=O)N[C@@H](Cc1c[nH]c2ccccc12)C(=O)N[C@@H](CC(C)C)C(=O)N[C@@H](CCS(C)(=O)=O)C(=O)N[C@@H](CC(=O)O)C(=O)N[C@H](C(N)=O)[C@@H](C)O)C(C)C
Turning to B7, the “GCGR EC50 human” value in assay [1] was above 19.8 nM. For the same molecule, the “GLP1R EC50 human” value in assay [2] was above 19.8 nM.

B8: TP693 (peptide)
peptide: HXQGTFTSDXSKYLDARAAQDFVXWLXDT
modifications: D-Ser (s) at 2; pAF(γEγEC16) at 10; K(PEG2PEG2γEC16-OH) at 24; L-methionine sulphone (2) at 27; C-terminal amide
For the molecule B8, in assay [1], the “GCGR EC50 human” value is 1.1 nM. For the same molecule, in assay [2], the “GLP1R EC50 human” value was above 4.9 nM.

B9: TP701 (peptide)
peptide: H[Aib]QGTFTSDYSKYLDERAAKDFVK([AEEA-AEEA-γGlu-C18 diacid])WL[Met(O2)]DT-NH2
modifications: N-terminus assumed
SMILES: CC(C)C[C@H](NC(=O)[C@H](Cc1ccc(O)cc1)NC(=O)[C@H](CCCCN)NC(=O)[C@H](CO)NC(=O)[C@H](Cc1ccc(O)cc1)NC(=O)[C@H](CC(=O)O)NC(=O)[C@H](CO)NC(=O)[C@@H](NC(=O)[C@H](Cc1ccccc1)NC(=O)[C@@H](NC(=O)CNC(=O)[C@H](CCC(N)=O)NC(=O)C(C)(C)NC(=O)[C@@H](N)Cc1c[nH]cn1)[C@@H](C)O)[C@@H](C)O)C(=O)N[C@@H](CC(=O)O)C(=O)N[C@@H](CCC(=O)O)C(=O)N[C@@H](CCCNC(=N)N)C(=O)N[C@@H](C)C(=O)N[C@@H](C)C(=O)N[C@@H](CCCCN)C(=O)N[C@@H](CC(=O)O)C(=O)N[C@@H](Cc1ccccc1)C(=O)N[C@H](C(=O)N[C@@H](CCCCNC(=O)COCCOCCNC(=O)COCCOCCNC(=O)CC[C@H](NC(=O)CCCCCCCCCCCCCCCCC(=O)O)C(=O)O)C(=O)N[C@@H](Cc1c[nH]c2ccccc12)C(=O)N[C@@H](CC(C)C)C(=O)N[C@@H](CCS(C)(=O)=O)C(=O)N[C@@H](CC(=O)O)C(=O)N[C@H](C(N)=O)[C@@H](C)O)C(C)C
With B9, the “GCGR EC50 human” value in assay [1] is above 4.9 nM. The “GLP1R EC50 human” value in assay [2] amounted to 0.18 nM.

B10: TP683 (peptide)
peptide: H[Aib]QGTFTSDYSKYLD[Aib]RAAQDFVQWLLK([AEEA-AEEA-γGlu-C18 diacid])TK-{γGlu-NH2}
For B10, the “GCGR EC50 human” value in assay [1] was determined as 4.97 nM. Also, the “GLP1R EC50 human” value in assay [2] was 0.62 nM.

For the origin of these results see patent publication US20200270325A1 (Merck Sharp & Dohme, published 2020).
